Results as given in US20200399344A1.

Tests used:
[1] = target: m2B4 expressed on CHO-K1/m2B4 cells (mouse) (UniProt Q07763); test: flow cytometry, isotype control stain of Cho-K1-NFkB-Luc-m2B4 clone C2; unstained cells 2.00
[2] = target: hCD28 expressed on CHO-K1/hCD28 cells (human) (UniProt P10747); test: flow cytometry, isotype control stain of CHO-K1/hCD28 cells (table row 1); unstained cells 130
[3] = target: hCD2 expressed on CHO-K1/hCD2 cells (human) (UniProt P06729); test: flow cytometry, isotype control stain of Cho-K1-Luc hCD2 clone 4; unstained cells 362
hCD2 expressed on CHO-K1/hCD2 cells (human), sequence (P06729 25-351): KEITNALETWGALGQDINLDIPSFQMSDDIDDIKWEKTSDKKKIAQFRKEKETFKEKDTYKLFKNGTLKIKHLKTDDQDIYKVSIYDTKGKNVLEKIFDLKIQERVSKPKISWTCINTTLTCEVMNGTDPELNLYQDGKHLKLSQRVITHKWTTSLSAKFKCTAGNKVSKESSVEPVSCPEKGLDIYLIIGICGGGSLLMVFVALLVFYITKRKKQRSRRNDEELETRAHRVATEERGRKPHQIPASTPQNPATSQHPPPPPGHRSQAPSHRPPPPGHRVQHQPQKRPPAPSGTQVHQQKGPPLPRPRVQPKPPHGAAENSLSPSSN

[4] = target: mCD28 expressed on CHO-K1/mCD28 cells (mouse) (UniProt P31041); test: flow cytometry, isotype control stain (sample Chok1-IsotypeCD28); unstained cells 286
mCD28 expressed on CHO-K1/mCD28 cells (mouse), sequence (P31041 20-218): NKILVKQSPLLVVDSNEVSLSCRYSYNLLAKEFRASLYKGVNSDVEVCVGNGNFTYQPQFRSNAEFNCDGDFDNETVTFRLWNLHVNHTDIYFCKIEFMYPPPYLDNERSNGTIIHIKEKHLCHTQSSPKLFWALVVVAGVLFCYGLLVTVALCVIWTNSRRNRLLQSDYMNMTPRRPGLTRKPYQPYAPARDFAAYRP

hCD28 expressed on CHO-K1/hCD28 cells (human), sequence (P10747 19-220): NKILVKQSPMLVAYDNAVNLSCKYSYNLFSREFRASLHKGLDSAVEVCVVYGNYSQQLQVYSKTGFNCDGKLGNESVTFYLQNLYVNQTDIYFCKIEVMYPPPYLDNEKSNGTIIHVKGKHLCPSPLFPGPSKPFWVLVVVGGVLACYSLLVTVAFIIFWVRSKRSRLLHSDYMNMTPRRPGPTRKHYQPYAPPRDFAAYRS
m2B4 expressed on CHO-K1/m2B4 cells (mouse), sequence (Q07763 20-397): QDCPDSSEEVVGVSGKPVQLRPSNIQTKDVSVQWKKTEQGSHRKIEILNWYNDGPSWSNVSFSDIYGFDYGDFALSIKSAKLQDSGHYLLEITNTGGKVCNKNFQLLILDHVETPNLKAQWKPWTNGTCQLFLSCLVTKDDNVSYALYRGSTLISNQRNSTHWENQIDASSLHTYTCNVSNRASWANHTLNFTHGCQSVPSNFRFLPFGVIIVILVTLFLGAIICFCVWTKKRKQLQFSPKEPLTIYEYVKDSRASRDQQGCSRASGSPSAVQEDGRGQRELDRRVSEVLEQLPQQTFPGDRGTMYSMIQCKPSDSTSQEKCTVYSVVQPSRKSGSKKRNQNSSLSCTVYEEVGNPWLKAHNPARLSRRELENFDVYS

Geometric Mean : PE-A [1]: 178
Geometric Mean : PE-A [2]: 589
Geometric Mean : PE-A [3]: 1760
Geometric Mean : PE-A [4]: 678
Substance: isotype control antibody
